Experimental data from US20130096058A1 (AstraZeneca / MedImmune, published 2013).

Experiments:
[1] = target: endogenous TRAIL R2 expressed on the cell surface (human, UniProt O14763 56-440); assay: cell-based or functional assay
cyno TRAIL R2-Fc [2] = target: T1, cyno TRAIL R2-Fc (cynomolgus monkey (Macaca fascicularis)); assay: competition ELISA: F4 mod 1 coated, cyno TRAIL R2-Fc
T1 construct: The text prints 'cyno TRAIL R2' and 'cyno TRAIL R2-Fc' for the same ELISAs; also called cynomolgus TRAIL R2

cyno TRAIL R2-Fc [3] = target: T1, cyno TRAIL R2-Fc; assay: competition ELISA: plate coated with F4 mod 1, cyno TRAIL R2-Fc, monomer titrated as competitor
cyno TRAIL R2-Fc [4] = target: T1, cyno TRAIL R2-Fc; assay: competition ELISA: plate coated with F4 mod 1, 0.75 nM cyno TRAIL R2-Fc, purified monomer titrated as competitor

Maximum Inhibition % (H2122) [1] [%] | fold difference in binding between F4 mod 1 and F4 mod 12 (cyno TRAIL R2-Fc [2]) [fold] | IC50 (cyno TRAIL R2-Fc [3]) [nM] | IC50 (cyno TRAIL R2-Fc [4]) [nM] | Binder
91 |  |  |  | A3 (1E11) (designed binder) SGGGGSAIEVKDVTDTTALITWAKPWVDPPPLWGCELAYGIKDVPGDRTTIDLQQKHTAYSIGNLKPDTEYEVSLICFDPYGAKSNPAKETFTTGGGGSGGGGSGGGGSAIEVKDVTDTTALITWAKPWVDPPPLWGCELAYGIKDVPGDRTTIDLQQKHTAYSIGNLKPDTEYEVSLICFDPYGAKSNPAKETFTTGGGGSGGGGSGGGGSAIEVKDVTDTTALITWAKPWVDPPPLWGCELAYGIKDVPGDRTTIDLQQKHTAYSIGNLKPDTEYEVSLICFDPYGAKSNPAKETFTTGGGGSGGGGSGGGGSAIEVKDVTDTTALITWAKPWVDPPPLWGCELAYGIKDVPGDRTTIDLQQKHTAYSIGNLKPDTEYEVSLICFDPYGAKSNPAKETFTTGGGGSGGGGSGTLGHHHHHHHH
 | ≤ 2 | 34 | 34 | F4 mod 1 (designed binder, F4 with a D to G mutation two amino acids before the DE loop) AIEVKDVTDTTALITWAKPWVDPPPLWGCELAYGIKDVPGDRTTIGLQQKHTAYSIGNLKPDTEYEVSLICFDPYGLKSRPAKETFTTGGGTLGHHHHHHHH
 | ≤ 2 | 50 |  | F4 mod 12 (designed binder, Germline-engineered F4 mod 1) SQIEVKDVTDTTALITWAKPWVDPPPLWGCELTYGIKDVPGDRTTIGLQQKHNQYSIGNLKPDTEYEVSLICFDPYGLKSRPAKETFTTGLGTLGHHHHHHHH
